Where two headings read alike, the source gives them in different places. No end group written: not given here.
Experiments:
MBP [1] = target: T1, MBP (Escherichia coli, UniProt P0AEX9); test: Surface Plasmon Resonance, immobilized MBP, peptides as analytes; assay type: binding; details: for SPR signal variations in the explored concentration range: dose response assay
T1 construct: made in house; host or cells: E. coli BL21(DE3)
Method: The interactions between the protein and computationally optimized peptides were measured using the BIAcore 3000 (GE Healthcare Milano, Italy). […] Residual reactive groups were deactivated by treatment with 1 M ethanolamine hydrochloride, pH 8.5. The reference channel was activated with EDC/NHS and deactivated with ethanolamine. The binding assays were carried out at 20 μL /min at 25°C, with 4.5 min contact-time. Peptides were diluted in the HBS running buffer (10 mM Hepes, 150 mM NaCl, 3 mM EDTA, pH 7.4). Analyte injections were performed at the indicated concentrations. The sensor surface was regenerated by using 1–3 washes of 10mM NaOH for 1 minute. The association phase (kon) was followed for 250s, whereas the dissociation phase (koff) was followed for 300 s. The instrument BIAevaluation analysis package (version 4.1, GE Healthcare, Milano, Italy) was used to subtract the signal of the reference channel. Conversely, an affinity steady state model was applied to fit the RUmax data versus peptides concentrations and fitting was performed with GraphPad Prism v4.00 using the one-site binding equation [53, 54].

OPPA = details: KAK+OPPA; cited from earlier work
MBP [2] = target: T1, MBP; details: cited from earlier work
[3] = immobilized MBP on CM5 chip, 25°C, HBS pH 7.4

Substance | KD (SPR determined) (MBP [1]; [3]) | also measured
GLPKPGGN [MBP-5, computationally designed octapeptide] | CBE | –
KAK | – | experimentally determined binding energy (OPPA): -9.8 kcal/mol
PQYPPHDN [MBP-4, computationally designed octapeptide] | CBE | –
WGTNGGTR [MBP-2, computationally designed octapeptide] | CBE | –
WHPRPVWE-NH2 [MBP-8] | – | Kd (MBP [1]; immobilized MBP on CM5 chip, 25°C, HBS pH 7.4, read-out: KD (SPR determined)): 200 ± 5 µM
WSPNFWWR [MBP-7, computationally designed octapeptide] | CBE | –
YGDGYFRF [MBP-10, peptide along the minimization path of MBP-9] | No binding | SPR signal variations in the explored concentration range (MBP [1]): did not give valuable signal variations
YHDGYFRF [MBP-11, peptide along the minimization path of MBP-9] | No binding | SPR signal variations in the explored concentration range (MBP [1]): did not give valuable signal variations
maltotriose | – | experimental binding energy (MBP [2]; compared with the closed configuration score): -9.3 kcal/mol; experimental binding energy (MBP [2]; compared with the open configuration score): -8.4 kcal/mol
